According to patent publication US20240101645A1 (HENRY M JACKSON FOUNDATION FOR THE ADVANCEMENT OF MILITARY …, published 2024):

T1: HCoV-OC43 spike antigens (bead panel) (HCoV-OC43, UniProt P36334 14-1297)
T1 sequence: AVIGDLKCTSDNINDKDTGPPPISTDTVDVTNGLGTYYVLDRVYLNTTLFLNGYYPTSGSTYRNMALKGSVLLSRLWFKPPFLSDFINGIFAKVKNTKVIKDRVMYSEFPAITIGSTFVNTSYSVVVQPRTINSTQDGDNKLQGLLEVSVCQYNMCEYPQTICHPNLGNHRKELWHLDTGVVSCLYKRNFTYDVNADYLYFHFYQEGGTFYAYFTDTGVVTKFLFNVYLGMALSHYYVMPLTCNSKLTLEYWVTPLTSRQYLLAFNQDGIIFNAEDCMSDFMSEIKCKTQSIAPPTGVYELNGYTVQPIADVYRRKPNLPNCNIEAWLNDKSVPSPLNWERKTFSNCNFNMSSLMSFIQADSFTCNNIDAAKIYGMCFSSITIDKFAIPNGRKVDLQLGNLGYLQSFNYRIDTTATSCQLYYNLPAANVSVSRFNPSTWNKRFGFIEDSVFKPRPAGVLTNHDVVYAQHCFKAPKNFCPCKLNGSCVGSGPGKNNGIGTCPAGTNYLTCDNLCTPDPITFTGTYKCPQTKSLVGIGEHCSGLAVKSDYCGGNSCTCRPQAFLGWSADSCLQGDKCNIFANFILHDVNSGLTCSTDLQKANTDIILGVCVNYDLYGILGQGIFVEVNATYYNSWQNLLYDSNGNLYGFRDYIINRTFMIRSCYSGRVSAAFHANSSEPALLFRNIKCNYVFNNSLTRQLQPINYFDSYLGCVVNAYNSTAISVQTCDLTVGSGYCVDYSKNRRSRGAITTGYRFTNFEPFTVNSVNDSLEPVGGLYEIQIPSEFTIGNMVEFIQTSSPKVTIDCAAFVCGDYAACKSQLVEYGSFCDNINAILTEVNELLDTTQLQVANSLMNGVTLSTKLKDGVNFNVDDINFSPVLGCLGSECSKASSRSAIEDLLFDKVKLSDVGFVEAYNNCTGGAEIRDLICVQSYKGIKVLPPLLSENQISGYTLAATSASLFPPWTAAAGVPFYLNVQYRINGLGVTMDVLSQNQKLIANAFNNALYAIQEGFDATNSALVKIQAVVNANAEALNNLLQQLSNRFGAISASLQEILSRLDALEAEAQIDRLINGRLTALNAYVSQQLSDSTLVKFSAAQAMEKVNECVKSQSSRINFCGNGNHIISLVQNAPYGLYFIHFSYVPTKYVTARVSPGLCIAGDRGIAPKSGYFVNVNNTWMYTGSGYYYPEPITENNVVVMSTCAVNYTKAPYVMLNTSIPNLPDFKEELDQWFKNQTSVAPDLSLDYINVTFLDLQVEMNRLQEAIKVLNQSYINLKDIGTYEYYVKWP

T2: HCoV-229E spike antigens (bead panel) (HCoV-229E, UniProt P15423 16-1115)
T2 sequence: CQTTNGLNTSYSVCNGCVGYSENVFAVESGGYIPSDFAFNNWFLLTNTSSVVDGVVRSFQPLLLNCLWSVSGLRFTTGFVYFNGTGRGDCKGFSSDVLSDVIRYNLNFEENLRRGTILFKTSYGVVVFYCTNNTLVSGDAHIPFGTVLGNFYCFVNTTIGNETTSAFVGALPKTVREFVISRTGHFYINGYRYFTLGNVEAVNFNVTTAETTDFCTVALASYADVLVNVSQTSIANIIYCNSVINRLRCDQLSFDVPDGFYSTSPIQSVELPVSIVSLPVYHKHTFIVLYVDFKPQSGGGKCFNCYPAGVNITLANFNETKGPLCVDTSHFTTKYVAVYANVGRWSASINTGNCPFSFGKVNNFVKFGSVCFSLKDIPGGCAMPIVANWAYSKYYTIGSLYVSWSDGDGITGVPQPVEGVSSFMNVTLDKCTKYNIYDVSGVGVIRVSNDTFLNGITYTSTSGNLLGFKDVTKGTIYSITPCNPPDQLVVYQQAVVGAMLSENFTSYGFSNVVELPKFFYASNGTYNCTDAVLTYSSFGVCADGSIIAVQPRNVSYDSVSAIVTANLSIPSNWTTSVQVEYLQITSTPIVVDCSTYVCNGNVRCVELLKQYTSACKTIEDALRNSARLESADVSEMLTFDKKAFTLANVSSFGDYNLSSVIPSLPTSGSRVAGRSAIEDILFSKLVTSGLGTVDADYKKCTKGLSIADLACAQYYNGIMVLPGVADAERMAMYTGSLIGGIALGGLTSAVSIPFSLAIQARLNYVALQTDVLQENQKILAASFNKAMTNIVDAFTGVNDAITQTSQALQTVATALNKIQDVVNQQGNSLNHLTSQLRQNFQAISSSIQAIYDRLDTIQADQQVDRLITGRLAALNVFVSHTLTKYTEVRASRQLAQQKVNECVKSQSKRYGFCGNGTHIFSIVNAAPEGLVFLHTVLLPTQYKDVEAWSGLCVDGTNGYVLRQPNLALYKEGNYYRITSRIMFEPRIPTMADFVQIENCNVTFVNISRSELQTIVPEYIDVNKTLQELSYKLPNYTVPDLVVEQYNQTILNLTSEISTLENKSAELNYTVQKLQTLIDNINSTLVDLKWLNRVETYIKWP

B1: COV_1050 (antibody, V domains shown)
VH: QVQLVESGGGVVQPGRSLRLSCAASRFTFSSYAMHWVRQAPGKGLEWVAVISFDGSNKYYADSVKGRFTIFRDNSKNTLSLQMNSLRTEDTAMYYCASPAGYYESLWGQGTLVTVSS
VL: SYELTQPPSVSVSPGQTARVTCSGDALSKQYGFWYQQKPGQAPTLVIYKDTERPSGIPERFSGSGSGTTVTLTISGVQAEDEADYYCQSTDNSGRWVFGGGTKLTVLG
notes: human IgG1
B2: COV_2100 (antibody, V domains shown)
VH: EVQLVESGGGLVQPGGSLRLSCAASGFTFSSYDMYWVRQATGKGLEWVSAIGTAGDTYYPGSVKGRFTISRENAKNSLYLRMNSLRAGDTAVYFCARADKNTAMFFDYWGQGTLVTVSS
VL: DIQMTQSPSSLSASVGDRVTITCRASQNINNFLHWYQQKPGNAPKLLIYAASTLQSGVPSRFSGSGSGTDFTLTISSLQPEDFATYYCQQSYSTPGGTFGGGTKVEIK
notes: human IgG1
B3: COV_2103 (antibody, V domains shown)
VH: EVQLVESGGGVVQPGRSLRLSCGASGFTFSSYGIHWVRQAPGKGLDWVAVIWHDGSQKYYGDSVKGRFTISRDNSKNTLYLQMNRLRAEDTAVYYCARDSGDDYDSSGYPIGNAFDLWGQGTMVTVSS
VL: DIQMTQSPSTLSASVGDRVTITCRASQFINSWLAWYQQKPGKAPKLLIYKASSLETGVPSRFSGSGSGTEFTLTISSLQPDDFATYYCQQYNTYSFTFGPGTKVDIK
notes: human IgG1
B4: COV_3088 (antibody, V domains shown)
VH: EVQLVESGGGLVQPGGSLRLSCAASGFTFSSYDMHWVRQATGKGLEWVSAIGTAGDTYYPGSVKGRFTISRENAKNSLYLQMNSLRAGDTAVYYCARGSGWPPFFDYWGQGTLVTVSS
VL: SYELTQPPSVSVAPGKTARITCGGNNIGSKSVHWYQQKPGQAPVLVIYYDSDRPSGIPERFSGSNSGNTATLTISRVEAGDEADYYCQVWDSSSDHHWVFGGGTKLTVL
notes: human IgG1
B5: COV_2134 (antibody, V domains shown)
VH: EVQLVESGGGVVQPGRSLRLSCAASGFIFSSYGMYWVRQAPGKGLEWVAVIWYDGSNKYYADSVKGRFTISRDNSKNTLYLQMNSLRAEDTAVYYCARDLSSSSGWDDYYYYYGMDVWGQGTTVTVSS
VL: not shown
notes: human IgG1
B6: COV_2196 (antibody, V domains shown)
VH: QVQLVQSGAEVKKPGASVKVSCKVSGYTLIELSMHWVRQAPGKGLEWMGGFDPEDAKTIYAQKFQGRVTMTEDTSTDTAYMELSSLTFEDTAVYYCATTPAFMAAAGDFDYWGQGTLVTVSS
VL: QPVLTQPSSVSVSPGQTATITCSGDVLAKKYARWFQQKPGQAPMLVIYKDTERPSGIPERFSGSSSGTTVTLTINGAQVEDEADYYCYSAAAWVFGGGTKLTVL
notes: human IgG1
B7: COV_2193 (antibody, V domains shown)
VH: QVQLVQSGAEVKKPGASVKVSCKVSGYTLTDLSMHWVRQTPGKGLEWMGGFDAEDGETIYAQNFQGRVTMTEDTSIDVAYMELSSLRSEDTAVYYCATGSVGPDYWGQGTLVTVSS
VL: SSELTQDPAVSVALGQTVRITCQGDSLRSYYASWFQQKPGQAPVLVIYLKNDRPSGIPDRFSGSSSGNTASLTITGAQAEDEADYYCNSRDSSGNHQVFGGGTKLTVL
notes: human IgG1

Columns and labels:
[1] = target: T1, HCoV-OC43 spike antigens (bead panel); assay: multiplex bead assay
[2] = target: T2, HCoV-229E spike antigens (bead panel); assay: multiplex bead assay
[3] = target: SARS-CoV-2 S on pseudovirions (Wuhan Hu-1 / IL1/2020, last 18 amino acids removed) (SARS-CoV-2, UniProt P0DTC2 14-1273); assay: cell-based or functional assay

| Binder | binding result [1] | binding result [2] | Mean IC50, pSV neutralization [3] | Mean IC80, pSV neutralization [3] |
| --- | --- | --- | --- | --- |
| B1 | no binding | no binding | ≥ 25 µg/ml | ≥ 25 µg/ml |
| B2 | no binding | no binding | 23 µg/ml | ≥ 25 µg/ml |
| B3 | no binding | no binding | ≥ 25 µg/ml | ≥ 25 µg/ml |
| B4 | no binding | no binding | ≥ 25 µg/ml | ≥ 25 µg/ml |
| B5 | no binding | no binding | 16.1 µg/ml | ≥ 25 µg/ml |
| B6 | no binding | no binding | 0.02 µg/ml | 23.4 µg/ml |
| B7 | no binding | no binding | ≥ 25 µg/ml | ≥ 25 µg/ml |
